Reference: US20250092146A1, “ANTI-CCR8 ANTIBODIES, CONJUGATES, AND USES THEREOF” (Abilita Bio, Inc., priority 2023, published 2025)
Where no end group is shown, it is not given here.

Target: T1, hCCR8 (Homo sapiens, UniProt P51685)
T1 construct: expressed in transfected cells
Assay: Flow cytometry binding of VHH-Fc fusion antibodies to hCCR8 on stably transfected HEK293 cells
Details: Table 12; for EC50: VHH-2 CDR alanine mutants as human Fc fusions, HEK293 hCCR8; for % Bmax: normalized to wild type VHH-2-Fc
Method: VHH-Fc fusion antibodies were evaluated for their ability to bind to hCCR8 on stably transfected HEK293 cells by means of flow cytometry. Cells were incubated with different concentrations of the bivalent VHH-Fc fusions for 60 minutes at 4° C., followed by two washes with FACS buffer, followed by 30 minutes incubation at 4° C. with the Zenon R-Phycoerythrin Anti-human IgG (ThermoFisher Scientific, #Z-25455), and two additional washing steps. Data were plotted and fit using GraphPad Prism software. EC50 and Bmax values individual antibodies were calculated from the resulting dose-response curves. Bivalent VHH-Fc fusions (Seq ID NOs: 31, 33, and 87-103) of 19 different VHH domains (SEQ ID NOs: 27, 28, and 70-86) were tested for cell binding and results are shown in Table 7. […]
VHH-Fc fusion DNA constructs were then generated comprising encoding humanized VHH sequences (SEQ ID NOs: 106-111) fused in frame to the human IgG1 (SEQ ID NO: 34) directly to the short hinge sequence in the pFuse expression vector, and were expressed, purified and analyzed for binding to HEK293 cells expressing human CCR8 as in Example 5. Binding curves for VHH-Fc antibodies comprised of parental VHH-1 and the humanized VHH derivatives VHH-1.2-Fc and VHH-1.3-Fc are shown in FIG. 9A. Binding curves for VHH-Fc antibodies comprised of parental VHH-2 and the humanized VHH derivatives VHH-2-Fc, VHH-2.2-Fc and VHH-2.3-Fc, are shown in FIG. 9B. Cell binding EC50 values, normalized Bmax (relative to respective parental clone) data and humanizing mutations are shown in Table 10 below.
Approaches such as in vitro affinity maturation and rational mutagenesis can be performed to regain binding affinity and/or stability lost through humanization. In vitro affinity maturation generally involves building and amino acid substitution library where amino acid positions are varied across the CDRs and/or framework at a defined set of positions using sets of amino acids chosen to introduce new chemical diversity. The paratope residues within the CDR regions are of course key to antigen binding and care must be taken not to disrupt important structures while attempting to evolve improve antibody behavior. One approach to identify positions that are important to the maintenance of binding properties is to perform paratope mapping using single scanning alanine substitutions across antibody CDR regions. In this approach, residues that are critical to the maintenance of antibody binding to the antigen can be identified and at the same time permissive sites can be identified where it may be possible to make substitutions of other amino acids desirable for subsequent affinity maturation library construction. Site directed mutagenesis was used to make single alanine substitutions at each residue in the CDRs of VHH-1 (SEQ ID NO: 27) and VHH-2 (SEQ ID NO: 28). Changes in VHH-1 CDR amino acids to alanine are indicated in Table 11 (SEQ ID NOs: 112-137) and for VHH-2 CDRs (SEQ ID NO: 138-162) in Table 12. Mutation positions and residue changes to alanine with respect to the in the parental VHH sequences are referenced by their IMGT position. VHH domains containing the indicated modified CDR-1, CDR-2 or CDR-3 domains were used to construct Fc fusions by direct grafting to the short hinge of the human Fc domain (SEQ ID NO: 34). VHH-Fc constructs were expressed, purified and analyzed for binding to HEK293 cells expressing hCCR8 and the results are reported in Table 11 and Table 12. EC50 values are reported for each Fc fusion antibody containing a modified CDR, along with its respective Bmax value normalized to the to the matched wild type VHH-1-Fc or VHH-2-Fc fusion antibody.

T1 sequence (P51685 whole entry): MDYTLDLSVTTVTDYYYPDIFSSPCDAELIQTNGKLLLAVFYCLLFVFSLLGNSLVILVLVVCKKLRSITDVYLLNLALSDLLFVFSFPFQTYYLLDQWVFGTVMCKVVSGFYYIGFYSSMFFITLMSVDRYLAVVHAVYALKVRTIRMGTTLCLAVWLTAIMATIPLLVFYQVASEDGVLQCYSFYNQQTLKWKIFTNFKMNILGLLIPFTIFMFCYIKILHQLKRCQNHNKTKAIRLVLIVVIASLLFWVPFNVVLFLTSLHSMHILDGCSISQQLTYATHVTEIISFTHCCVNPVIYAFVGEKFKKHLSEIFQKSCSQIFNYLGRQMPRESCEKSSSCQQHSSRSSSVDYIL

Substance | EC50 [nM] | % Bmax [%]
VHH-2 S28A: VHH-2 alanine mutant, CDR1 GATSTINR, fused to human IgG1 Fc (also: CDR1 of VHH-2 in VHH fused to human IgG1 Fc) | 1.61 | 68
VHH-2 S30A: VHH-2 alanine mutant, CDR1 GSTATINR, fused to human IgG1 Fc (also: CDR1 of VHH-2 in VHH fused to human IgG1 Fc) | 1.62 | 66
VHH-2 S57A: VHH-2 alanine mutant, CDR2 TASRTSP, fused to human IgG1 Fc (also: CDR2 of VHH-2 in VHH fused to human IgG1 Fc) | 1.03 | 69
VHH-2 S58A: VHH-2 alanine mutant, CDR2 TSARTSP, fused to human IgG1 Fc (also: CDR2 of VHH-2 in VHH fused to human IgG1 Fc) | 1.02 | 65
VHH-2 S63A: VHH-2 alanine mutant, CDR2 TSSRTAP, fused to human IgG1 Fc (also: CDR2 of VHH-2 in VHH fused to human IgG1 Fc) | 1.08 | 70
VHH-2 T29A: VHH-2 alanine mutant, CDR1 GSASTINR, fused to human IgG1 Fc (also: CDR1 of VHH-2 in VHH fused to human IgG1 Fc) | 1.43 | 65
VHH-2 T59A: VHH-2 alanine mutant, CDR2 TSSRASP, fused to human IgG1 Fc | 1.48 | 74
VHH-2 V115A: VHH-2 alanine mutant, CDR3 QARMAMGSSQAVY, fused to human IgG1 Fc (also: CDR3 of VHH-2 in VHH fused to human IgG1 Fc) | 1.34 | 11

Stronger by EC50, values ahead:

EC50 [nM] | % Bmax [%] | Substance
0.9 | 48 | VHH-2 S113A: VHH-2 alanine mutant, CDR3 QARMAMGSAQVVY, fused to human IgG1 Fc (also: CDR3 of VHH-2 in VHH fused to human IgG1 Fc)
0.87 | 65 | VHH-2 T35A: VHH-2 alanine mutant, CDR1 GSTSAINR, fused to human IgG1 Fc (also: CDR1 of VHH-2 in VHH fused to human IgG1 Fc)
0.86 | 76 | VHH-2 Y117A: VHH-2 alanine mutant, CDR3 QARMAMGSSQVVA, fused to human IgG1 Fc (also: CDR3 of VHH-2 in VHH fused to human IgG1 Fc)
0.83 | 72 | VHH-2 V116A: VHH-2 alanine mutant, CDR3 QARMAMGSSQVAY, fused to human IgG1 Fc (also: CDR3 of VHH-2 in VHH fused to human IgG1 Fc)
